{
  "source": "patent US20250152729A1",
  "about": "(CANCER RESEARCH TECHNOLOGY, published 2025)",
  "data": [
    {"target": "T1, cynomolgus SEMA4A expressed on expi293 cells (UniProt ID G7NV79) (cynomolgus, UniProt Q9H3S1 33-761 (human entry))", "T1 construct": "Transient transfection in expi293 cells; also called cyno SEMA4A", "T1 chain": "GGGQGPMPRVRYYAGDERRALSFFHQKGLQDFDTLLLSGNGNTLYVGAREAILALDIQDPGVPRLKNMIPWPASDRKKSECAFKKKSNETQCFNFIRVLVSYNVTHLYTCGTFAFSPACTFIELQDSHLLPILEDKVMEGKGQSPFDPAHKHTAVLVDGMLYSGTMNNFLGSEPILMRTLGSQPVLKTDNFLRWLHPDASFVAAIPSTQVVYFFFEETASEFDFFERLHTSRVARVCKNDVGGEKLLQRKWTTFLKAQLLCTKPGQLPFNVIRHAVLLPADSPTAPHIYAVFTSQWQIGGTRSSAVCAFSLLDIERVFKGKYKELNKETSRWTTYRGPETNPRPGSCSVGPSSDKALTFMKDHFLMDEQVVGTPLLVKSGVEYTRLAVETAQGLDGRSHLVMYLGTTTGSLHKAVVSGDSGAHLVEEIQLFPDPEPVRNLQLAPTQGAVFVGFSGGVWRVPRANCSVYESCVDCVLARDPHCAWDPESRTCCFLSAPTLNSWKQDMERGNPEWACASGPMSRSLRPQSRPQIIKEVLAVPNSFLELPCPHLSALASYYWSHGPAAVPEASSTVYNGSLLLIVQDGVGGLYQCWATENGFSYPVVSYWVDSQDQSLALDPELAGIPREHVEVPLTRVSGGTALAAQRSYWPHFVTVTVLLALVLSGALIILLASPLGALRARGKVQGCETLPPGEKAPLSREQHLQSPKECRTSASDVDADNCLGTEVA", "experiment": "Mirrorball direct binding, dilution series on expi293 cells transiently transfected with cyno SEMA4A, anti-human Alexa Fluor 647", "text": "Hits from the primary screening were re-formatted into the human Alya IgG1 vector and re-expressed and purified as described in section 4.1. In addition, a single clone was identified that contained an Asparagine deamidation motif (Asn Gly) within its VHCDR2. This potential sequence liability was de-risked by synthesising de novo two clonal variant VH genes (Asn Ala and Gln Gly) and cloning these sequences into the human Alya IgG1 expression vector. To determine the specificity profile of each purified human Alya IgG1, a dilution series was tested for binding to human SEMA4A, mouse SEMA4A, cyno SEMA4A, human SEMA4B and mock transfected cells (transient transfections set up in expi 293 cells.) The five assays employed methods described in section 2.3, using the appropriate cells and substituting the un-purified scFv periplasmic preparation with the recombinant human Alya IgG1 dilution series. Data was analysed as Count x median mean intensity (x FLU).", "values": [
      {"binder": "5Hg4-5Lg5 human Alya IgG1 (antibody, V domains shown, Humanised 5E3; human IgG1 Alya constant (239iCys, S442C, EU), lambda light chain; purified, unconjugated) VH: QVQLVQSGSELKKPGASVKVSCKASGYTFTDYWMHWVRQAPGQGLEWMGAIDTSDSYTSYNQKFKGRFVFSLDTSVSTAYLQICSLKAEDTAVYYCARDYGNFYYYAMDYWGQGTLVTVSS VL: QSVVTQPPSVSGAPGQRVTISCRSSTGAVTTSNYANWYQQLPGTAPKLLIYGTNNRAPGVPDRFSGSKSGASASLAITGLQAEDEADYYCALWYSNHWVFGGGTKLTVL", "binding result": "binds"},
      {"binder": "5Hg4-5Lg4 human Alya IgG1 (antibody, V domains shown, Humanised 5E3; human IgG1 Alya constant (239iCys, S442C, EU), lambda light chain; purified, unconjugated) VH: QVQLVQSGSELKKPGASVKVSCKASGYTFTDYWMHWVRQAPGQGLEWMGAIDTSDSYTSYNQKFKGRFVFSLDTSVSTAYLQICSLKAEDTAVYYCARDYGNFYYYAMDYWGQGTLVTVSS VL: QSALTQPPSVSGSPGQSVTISCRSSTGAVTTSNYANWYQQPPGTAPKLMIYGTNNRAPGVPDRFSGSKSGNTASLTISGLQAEDEADYYCALWYSNHWVFGGGTKLTVL", "binding result": "binds"},
      {"binder": "5Hg2-5Lg1 human Alya IgG1 (antibody, V domains shown, Humanised 5E3; human IgG1 Alya constant (239iCys, S442C, EU), lambda light chain; purified, unconjugated) VH: QVQLVQSGAEVKKPGASVKVSCKASGYTFTDYWMHWVRQAPGQRLEWMGAIDTSDSYTSYNQKFKGRVTITRDTSASTAYMELSSLRSEDTAVYYCARDYGNFYYYAMDYWGQGTLVTVSS VL: QAVVTQEPSLTVSPGGTVTLTCRSSTGAVTTSNYANWFQQKPGQAPRTLIYGTNNRAPWTPARFSGSLLGGKAALTLSGAQPEDEAEYYCALWYSNHWVFGGGTKLTVL", "binding result": "binds"},
      {"binder": "5Hg5-5Lg2 human Alya IgG1 (antibody, V domains shown, Humanised 5E3; human IgG1 Alya constant (239iCys, S442C, EU), lambda light chain; purified, unconjugated; also called 5HE5/5Lg2) VH: EVQLVQSGAEVKKPGESLRISCKGSGYSFTDYWMHWVRQMPGKGLEWMGAIDTSDSYTSYNQKFKGQVTISADKSISTAYLQWSSLKASDTAMYYCARDYGNFYYYAMDYWGQGTLVTVSS VL: QAVVTQEPSLTVSPGGTVTLTCRSSTGAVTTSNYANWFQQKPGQAPRTLIYGTNNRAPWTPARFSGSLLGGKAALTLLGAQPEDEAEYYCALWYSNHWVFGGGTKLTVL", "binding result": "binds"},
      {"binder": "5Hg2-5Lg6 human Alya IgG1 (antibody, V domains shown, Humanised 5E3; human IgG1 Alya constant (239iCys, S442C, EU), lambda light chain; purified, unconjugated) VH: QVQLVQSGAEVKKPGASVKVSCKASGYTFTDYWMHWVRQAPGQRLEWMGAIDTSDSYTSYNQKFKGRVTITRDTSASTAYMELSSLRSEDTAVYYCARDYGNFYYYAMDYWGQGTLVTVSS VL: SYELTQPSSVSVSPGQTARITCRSSTGAVTTSNYANWFQQKPGQAPVLVIYGTNNRAPGIPERFSGSSSGTTVTLTISGAQVEDEADYYCALWYSNHWVFGGGTKLTVL", "binding result": "binds"},
      {"binder": "5Hg4-5Lg1 human Alya IgG1 (antibody, V domains shown, Humanised 5E3; human IgG1 Alya constant (239iCys, S442C, EU), lambda light chain; purified, unconjugated) VH: QVQLVQSGSELKKPGASVKVSCKASGYTFTDYWMHWVRQAPGQGLEWMGAIDTSDSYTSYNQKFKGRFVFSLDTSVSTAYLQICSLKAEDTAVYYCARDYGNFYYYAMDYWGQGTLVTVSS VL: QAVVTQEPSLTVSPGGTVTLTCRSSTGAVTTSNYANWFQQKPGQAPRTLIYGTNNRAPWTPARFSGSLLGGKAALTLSGAQPEDEAEYYCALWYSNHWVFGGGTKLTVL", "binding result": "binds"},
      {"binder": "5Hg2-5Lg3 human Alya IgG1 (antibody, V domains shown, Humanised 5E3; human IgG1 Alya constant (239iCys, S442C, EU), lambda light chain; purified, unconjugated) VH: QVQLVQSGAEVKKPGASVKVSCKASGYTFTDYWMHWVRQAPGQRLEWMGAIDTSDSYTSYNQKFKGRVTITRDTSASTAYMELSSLRSEDTAVYYCARDYGNFYYYAMDYWGQGTLVTVSS VL: QTVVTQEPSFSVSPGGTVTLTCRSSTGAVTTSNYANWYQQTPGQAPRTLIYGTNNRAPGVPDRFSGSILGNKAALTITGAQADDESDYYCALWYSNHWVFGGGTKLTVL", "binding result": "binds"},
      {"binder": "5Hg4-5Lg2 human Alya IgG1 (antibody, V domains shown, Humanised 5E3; human IgG1 Alya constant (239iCys, S442C, EU), lambda light chain; purified, unconjugated) VH: QVQLVQSGSELKKPGASVKVSCKASGYTFTDYWMHWVRQAPGQGLEWMGAIDTSDSYTSYNQKFKGRFVFSLDTSVSTAYLQICSLKAEDTAVYYCARDYGNFYYYAMDYWGQGTLVTVSS VL: QAVVTQEPSLTVSPGGTVTLTCRSSTGAVTTSNYANWFQQKPGQAPRTLIYGTNNRAPWTPARFSGSLLGGKAALTLLGAQPEDEAEYYCALWYSNHWVFGGGTKLTVL", "binding result": "binds"},
      {"binder": "5Hg2-5Lg2 human Alya IgG1 (antibody, V domains shown, Humanised 5E3; human IgG1 Alya constant (239iCys, S442C, EU), lambda light chain; purified, unconjugated) VH: QVQLVQSGAEVKKPGASVKVSCKASGYTFTDYWMHWVRQAPGQRLEWMGAIDTSDSYTSYNQKFKGRVTITRDTSASTAYMELSSLRSEDTAVYYCARDYGNFYYYAMDYWGQGTLVTVSS VL: QAVVTQEPSLTVSPGGTVTLTCRSSTGAVTTSNYANWFQQKPGQAPRTLIYGTNNRAPWTPARFSGSLLGGKAALTLLGAQPEDEAEYYCALWYSNHWVFGGGTKLTVL", "binding result": "binds"},
      {"binder": "5Hg1-5Lg1 human Alya IgG1 (antibody, V domains shown, Humanised 5E3; human IgG1 Alya constant (239iCys, S442C, EU), lambda light chain; purified, unconjugated) VH: QVQLVQSGAEVKKPGASVKVSCKASGYTFTDYWMHWVRQAPGQGLEWMGAIDTSDSYTSYNQKFKGRVTMTRDTSTSTVYMELSSLRSEDTAVYYCARDYGNFYYYAMDYWGQGTLVTVSS VL: QAVVTQEPSLTVSPGGTVTLTCRSSTGAVTTSNYANWFQQKPGQAPRTLIYGTNNRAPWTPARFSGSLLGGKAALTLSGAQPEDEAEYYCALWYSNHWVFGGGTKLTVL", "binding result": "binds"},
      {"binder": "5Hg1-5Lg2 human Alya IgG1 (antibody, V domains shown, Humanised 5E3; human IgG1 Alya constant (239iCys, S442C, EU), lambda light chain; purified, unconjugated) VH: QVQLVQSGAEVKKPGASVKVSCKASGYTFTDYWMHWVRQAPGQGLEWMGAIDTSDSYTSYNQKFKGRVTMTRDTSTSTVYMELSSLRSEDTAVYYCARDYGNFYYYAMDYWGQGTLVTVSS VL: QAVVTQEPSLTVSPGGTVTLTCRSSTGAVTTSNYANWFQQKPGQAPRTLIYGTNNRAPWTPARFSGSLLGGKAALTLLGAQPEDEAEYYCALWYSNHWVFGGGTKLTVL", "binding result": "binds"}
    ]},
    {"target": "T2, recombinant cynomolgus SEMA4A AviHis10, biotinylated (cynomolgus, UniProt Q9H3S1 32-677 (human entry), biotin on the Avi tag (BirA))", "T2 construct": "The text says amino acids 32-679 of G7NV79 with C-terminal Avi tag and His10 tag; also called Cyno SEMA4A AviHis10; cynoSEMA4A", "T2 chain": "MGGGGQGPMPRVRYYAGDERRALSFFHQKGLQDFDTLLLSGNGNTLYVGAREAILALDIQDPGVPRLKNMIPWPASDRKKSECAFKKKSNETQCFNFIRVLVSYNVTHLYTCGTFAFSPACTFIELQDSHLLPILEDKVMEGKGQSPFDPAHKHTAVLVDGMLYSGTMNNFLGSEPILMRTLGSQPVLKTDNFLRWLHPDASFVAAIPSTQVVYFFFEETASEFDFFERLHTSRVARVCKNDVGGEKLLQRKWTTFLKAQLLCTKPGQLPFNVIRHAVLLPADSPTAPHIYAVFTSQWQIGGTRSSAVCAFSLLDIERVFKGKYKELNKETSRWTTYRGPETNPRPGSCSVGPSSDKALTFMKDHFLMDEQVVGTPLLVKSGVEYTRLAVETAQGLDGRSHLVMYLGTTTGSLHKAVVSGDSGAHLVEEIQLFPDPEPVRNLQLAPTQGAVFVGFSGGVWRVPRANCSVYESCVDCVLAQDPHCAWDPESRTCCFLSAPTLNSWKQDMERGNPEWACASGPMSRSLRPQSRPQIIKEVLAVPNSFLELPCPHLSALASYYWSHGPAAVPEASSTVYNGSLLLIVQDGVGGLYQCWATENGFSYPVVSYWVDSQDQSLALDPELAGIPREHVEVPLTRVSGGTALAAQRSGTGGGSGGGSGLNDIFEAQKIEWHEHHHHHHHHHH", "experiment": "BLI (OctetRED), biotinylated SEMA4A on streptavidin tip, IgG as analyte, 1:1 model; KD(observed) IgG", "description": "An Octet Kinetics buffer (PBS containing 0.01% (v/v) BSA and 0.002% (v/v) Tween20) is typically used as the diluent buffer for the analyte samples and as the flow buffer during the dissociation phase. The experimental data is recorded as shift in interference pattern (nm) over time, which is directly proportional to the optical thickness at the biosensor tip, which in turn is an approximate measure of the mass of analyte bound. The proprietary Octet Data Analysis software package can then be used to process data and fit binding models to the data sets. Returned association (ka, M-1 s-1) and dissociation (kd, s-1) rate constants allow calculation of dissociation (KD, M) affinity constants.\nThe affinity of binding between the analytes (humanised and phage display derived IgGs as human Alya IgG1s and Fabs) and human SEMA4A and cynomolgus SEMA4A, was estimated using assays in which the biotinylated SEMA4A antigen was captured on a streptavidin sensor tip. A fresh sensor tip was used for each measurement and no regeneration was used. A series of dilutions of the lead Fabs and human Alya IgG1s (3.25-240 nM) were individually placed in contact with the ligand surface for a sufficient amount of time to observe sensorgrams that could be fitted to an appropriate binding model with confidence (typically 5 minutes), followed by an appropriate length of dissociation time (typically 10 minutes). Blank reference (0 nM analyte) data were subtracted from each dataset to reduce the impact of any buffer artefacts or non-specific binding effects. A 1:1 binding model was then fitted simultaneously to the data from each analyte titration using the Octet Evaluation software (Table 8).", "units": {"Kd": "nM"}, "values": [
      {"binder": "C0120906 human Alya IgG1 (antibody, V domains shown, Fully human, phage display derived; human IgG1 Alya constant (239iCys, S442C, EU); unconjugated) VH: EVQLVQSGPEVKKPGASVKISCKASGYKLNDPGVHGVSWVRQAPGQGLEWMGWISTLNGDTRYAQKFQGRVTMATDSSTSTIYMDLRSLKSDDTALYYCARDDYTAIFDFWGRGTLVTVSS VL: QSVLTQPPSVSVAPGQTASITCGGSNIGSQSVHWYQQKPGQAPVLVVYDDSDRPSGIPERFSGSKSGNTASLILSRVEAGDEADYYCQVWDSSTDHHVFGTGTKVTVL", "Kd": 2},
      {"binder": "C0120905 human Alya IgG1 (antibody, V domains shown, Fully human, phage display derived; human IgG1 Alya constant (239iCys, S442C, EU); unconjugated) VH: not shown VL: NFMLTQPHSVSESPGKTVTISCTGSGGNIVDNFVQWHQQRPGSAPRTVIYEDDQRPSGVPDRFSASVDSSSNSGTLSISGLKTEDEADYYCQSYDGANRWVFGGGTKLTVL", "Kd": 9}
    ]}
  ]
}
